Experimental findings from US20110064740A1 are described below.

Experiment [1] addresses Cell-surface full length amyloid precursor protein (APP) on HEK293T cells transfected with wild type APP DNA (UniProt P05067). The experiment is described as follows: FMAT ABI8200, HEK293T cells transfected with wild type APP, mock subtracted; Experiment 1.
Experiment [2] shares this target. Kind of experiment: FMAT ABI8200, HEK293T cells transfected with wild type APP, mock subtracted; Experiment 2.

Cell-surface full length amyloid precursor protein (APP) on HEK293T cells transfected with wild type APP DNA, sequence (P05067 18-770): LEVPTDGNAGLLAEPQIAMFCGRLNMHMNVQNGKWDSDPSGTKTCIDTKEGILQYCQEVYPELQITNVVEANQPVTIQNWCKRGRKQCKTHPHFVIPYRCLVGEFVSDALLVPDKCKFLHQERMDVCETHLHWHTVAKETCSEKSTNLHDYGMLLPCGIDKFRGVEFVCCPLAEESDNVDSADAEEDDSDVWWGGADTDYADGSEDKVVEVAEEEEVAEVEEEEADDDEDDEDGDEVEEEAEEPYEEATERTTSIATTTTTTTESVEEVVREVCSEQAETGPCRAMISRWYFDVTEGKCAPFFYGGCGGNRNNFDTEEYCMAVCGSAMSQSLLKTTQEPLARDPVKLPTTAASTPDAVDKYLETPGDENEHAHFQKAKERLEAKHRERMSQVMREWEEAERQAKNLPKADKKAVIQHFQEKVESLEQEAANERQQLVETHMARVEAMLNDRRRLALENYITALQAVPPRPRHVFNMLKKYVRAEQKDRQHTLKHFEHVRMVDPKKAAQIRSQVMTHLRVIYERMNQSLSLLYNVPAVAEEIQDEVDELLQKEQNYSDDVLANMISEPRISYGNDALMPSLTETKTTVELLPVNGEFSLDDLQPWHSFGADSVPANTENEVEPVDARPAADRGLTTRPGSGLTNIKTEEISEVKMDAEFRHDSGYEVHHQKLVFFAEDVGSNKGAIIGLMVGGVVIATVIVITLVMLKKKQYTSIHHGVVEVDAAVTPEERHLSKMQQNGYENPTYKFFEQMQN

In the case of “Antibody G210 which recognises the x-40 form of the β-amyloid peptide”, the % of LN27 binding amounted to 5.5% in experiment [1] and 2% in experiment [2].
Take “LN27 (Zymed) mouse IgG to extracellular domain of APP (antibody)”: the % of LN27 binding in experiment [1] and in experiment [2] was 100% each time.
